# Results reported in patent US12606635B2, “Glypican-2-binding moieties, chimeric antigen receptors and uses thereof” (Nanjing Legend Biotech Co., Ltd., priority 2020, dated 2026).
# Key:
# [1] = biological target: T1, recombinant human GPC2-His protein (Homo sapiens, UniProt Q8N158); assay: SPR (Biacore T200) affinity of anti-GPC2 VHH-hIgG1Fc; conditions: 1:1 binding model
# T1 construct: His
# T1 sequence (Q8N158 24-554): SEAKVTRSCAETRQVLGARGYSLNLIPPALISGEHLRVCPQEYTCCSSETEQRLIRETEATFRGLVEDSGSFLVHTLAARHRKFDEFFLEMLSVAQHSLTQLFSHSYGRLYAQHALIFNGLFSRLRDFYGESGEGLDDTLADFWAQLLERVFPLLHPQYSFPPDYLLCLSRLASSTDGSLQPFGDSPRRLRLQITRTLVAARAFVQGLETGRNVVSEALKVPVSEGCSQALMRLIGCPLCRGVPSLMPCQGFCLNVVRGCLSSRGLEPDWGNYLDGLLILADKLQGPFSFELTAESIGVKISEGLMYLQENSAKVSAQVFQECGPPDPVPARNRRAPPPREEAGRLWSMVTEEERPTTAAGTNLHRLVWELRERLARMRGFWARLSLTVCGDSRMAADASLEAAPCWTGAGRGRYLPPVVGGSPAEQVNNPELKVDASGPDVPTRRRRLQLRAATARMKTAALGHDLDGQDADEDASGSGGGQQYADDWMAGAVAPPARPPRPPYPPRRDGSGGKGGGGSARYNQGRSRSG
# Protocol: Each of the exemplary anti-GPC2 VHH sequences was cloned into a vector comprising a human IgG1Fc fragment (hlgG1Fc) sequence to facilitate recombinant expression of anti-GPC2 VHH-hlgG1Fc. Recombinant proteins were obtained and purified for SPR assays. The affinity of each anti-GPC2 VHH-hIgG1Fc for GPC2 was determined by SPR using a BIACORE® T200 analytical system (GE Healthcare). Briefly, recombinant human GPC2-His protein was covalently coupled to a CM5(s) sensor chip using an amine coupling kit. Exemplary VHH-hIgG1Fc proteins were serially diluted in running buffer (10 mM HEPES, 150 mM NaCl, 3 mM EDTA, 0.05% Tween-20, pH 7.4) and injected over the chip cell at a flowrate of 100 μL/min for 100 seconds followed by buffer-only injection for 300 seconds to allow for antibody dissociation. The dissociation […] (KD) were determined using the BIACORE® T200 evaluation software version 3.0 (Langmuir binding, local fit, 1:1 binding model).
# [2] = system: human neuroblastoma cell line SH-SY5Y; assay: In vitro cytotoxicity assay (LDH), SH-SY5Y; type: cell-based; conditions: second group, FIG. 6C
# Protocol: The pre-activated T cells were transduced with lentivirus stock in the presence of […] polybrene and 300 IU/mL IL-2. T cells and lentivirus were centrifuged at 1000 g, 32° C. for 1 h and placed in humidified cell culture incubator for transgene expression under suitable conditions. On day 5 or day 7 or day 10 post-transduction, transduced T cells were harvested and co-incubated with tumor cells at an effector (CAR T) to target cell ratio of 10:1 or 5:1 or 2:1 or 1:1 or 0.2:1 for 20 hours. Target cells were human neuroblastoma cell line SH-SY5Y (ATCC, #CRL-2266), human neuroblastoma cell line IMR-32 cells (ATCC, #CCL-127), or human epidermoid carcinoma cell line A-431 (ATCC, #CRL-1555). To assay the cytotoxicity of CAR T cells on tumor cells, the Cytotoxicity Detection Kit (LDH) (Roche, #11644793001) assay reagents were prepared according to manufacturer's protocol. Reaction mix was added to the cell-free supernatant of each sample to detect the LDH released from cells. Optical densities at OD492 nm and OD650 nm were measured by PHERStar Microplate Reader. Baseline LDH released from the target cell in the absence of effector cells and effector cell in the absence of target cells were subtracted from the total LDH amount. The target maximum release was obtained by adding Triton-X100 at a final concentration of 1% to target cells in the absence of effector cells at the time when the cytotoxicity assays initiated. Supernatant from target cells in the absence of effector cells was used for target minimum release. The specific cytotoxicity was calculated by the formula: % Target cell lysis=100*[(OD CAR T cell+Target cell)−(OD CAR T cell)−(OD Target cell)+(OD Buffer background)]/(OD Target Maximum release−OD Target Minimum release).
# On day 5 or day 8 or day 10 post-transduction, transduced T cells were harvested and co-incubated with tumor cells at an effector (CAR T) to target cell ratio of 10:1 or 1:1 or 0.2:1 for 20 hours. To assay the cytotoxicity of CAR T cells on tumor cells, the Cytotoxicity Detection Kit (LDH) (Roche, #11644793001) was added to the culture supernatant and the specific cytotoxicity for each CAR T cell construct was measured as described in Example 6.
ka [1] [M⁻¹ s⁻¹],kd [1] [s⁻¹],Molecule,"cytotoxicity against SH-SY5Y compared with CAS70950-BBz, CAS72052-BBz and CAS72669-BBz [2]"
520000,7.7e-05,"AS72669VH6-hIgG1Fc: AS72669VH6 VHH fused to human IgG1Fc fragment (protein, left off: a dimerising Fc or GST, AS72669VH6 VHH fused to human IgG1Fc fragment) QVQLVESGGGVVQPGGSLRLSCAASRFTYSSYCMGWIRQAPGKGREGVAIFYTGGGRTYYADSVKGRFTISQDNSKNTLYLQMNSLRAEDTAVYYCVAGFYCSGGYWEGDFGYWGQGTLVTVSS",–
–,–,"CAS77932-BBz: camel VHH anti-GPC2 CAR (4-1BB, CD3ζ), SEQ ID NO: 208; tested as CAR T cells (protein, expressed in CAR T cells; CAS77932-BBz) MALPVTALLLPLALLLHAARPQVQLKESGGGSVQAGGSLRLSCAVSGYWYSVAWMGWFRQTPGKEREGVAAVLNGGGRRYYADSVKGRFTISQDNSKNTLYLQMNSLKPEDTAMYYCAAGNGVGHPLGPSEYNYWGQGTQVTVSSTTTPAPRPPTPAPTIASQPLSLRPEACRPAAGGAVHTRGLDFACDIYIWAPLAGTCGVLLLSLVITLYCKRGRKKLLYIFKQPFMRPVQTTQEEDGCSCRFPEEEEGGCELRVKFSRSADAPAYKQGQNQLYNELNLGRREEYDVLDKRRGRDPEMGGKPRRKNPQEGLYNELQKDKMAEAYSEIGMKGERRRGKGHDGLYQGLSTATKDTYDALHMQALPPR",better cytotoxicity
–,–,"CAS77986-BBz: camel VHH anti-GPC2 CAR (4-1BB, CD3ζ), SEQ ID NO: 211; tested as CAR T cells (protein, expressed in CAR T cells; CAS77986-BBz) MALPVTALLLPLALLLHAARPQVQLVESGGGSVQAGGSLRLSCAASASGYTYSSDSMAWFRQAPGKEREGVAGISTGGRSTYYADSVKGRFTISQDNAKTTVYLHMNSLKPEDTAMYYCAADGPSMTAIQALGDLYPVDFAWWGQGTQVTVSSTTTPAPRPPTPAPTIASQPLSLRPEACRPAAGGAVHTRGLDFACDIYIWAPLAGTCGVLLLSLVITLYCKRGRKKLLYIFKQPFMRPVQTTQEEDGCSCRFPEEEEGGCELRVKFSRSADAPAYKQGQNQLYNELNLGRREEYDVLDKRRGRDPEMGGKPRRKNPQEGLYNELQKDKMAEAYSEIGMKGERRRGKGHDGLYQGLSTATKDTYDALHMQALPPR",better cytotoxicity
–,–,"CAS78117-BBz: camel VHH anti-GPC2 CAR (4-1BB, CD3ζ), SEQ ID NO: 212; tested as CAR T cells (protein, expressed in CAR T cells; CAS78117-BBz) MALPVTALLLPLALLLHAARPQVKLVESGGGSVQAGGALRLSCIVRRYTYATYSMAWFRQSPGKEREGVAGLDSVGATGYAESVKGRFTISKDNAKNILYLQMNSLKPEDTAMYYCVVDPASAKVTYGSWSTPSYAYWGQGTQVTVSSTTTPAPRPPTPAPTIASQPLSLRPEACRPAAGGAVHTRGLDFACDIYIWAPLAGTCGVLLLSLVITLYCKRGRKKLLYIFKQPFMRPVQTTQEEDGCSCRFPEEEEGGCELRVKFSRSADAPAYKQGQNQLYNELNLGRREEYDVLDKRRGRDPEMGGKPRRKNPQEGLYNELQKDKMAEAYSEIGMKGERRRGKGHDGLYQGLSTATKDTYDALHMQALPPR",better cytotoxicity
–,–,"CAS79101-BBz: camel VHH anti-GPC2 CAR (4-1BB, CD3ζ), SEQ ID NO: 215; tested as CAR T cells (protein, expressed in CAR T cells; CAS79101-BBz) MALPVTALLLPLALLLHAARPQVQLVESGGGSVQAGGSLRLSCAASGDTYSNYCMGWFRQAPGKEREEVAAIDSDGSRRYPDSVKGRFTISKDNAKKILYLQMNSLKPEDTAMYFCATDPKVACARVVEYGGGWYRWGQGTQVTVSSTTTPAPRPPTPAPTIASQPLSLRPEACRPAAGGAVHTRGLDFACDIYIWAPLAGTCGVLLLSLVITLYCKRGRKKLLYIFKQPFMRPVQTTQEEDGCSCRFPEEEEGGCELRVKFSRSADAPAYKQGQNQLYNELNLGRREEYDVLDKRRGRDPEMGGKPRRKNPQEGLYNELQKDKMAEAYSEIGMKGERRRGKGHDGLYQGLSTATKDTYDALHMQALPPR",better cytotoxicity
–,–,"CAS79236-BBz: camel VHH anti-GPC2 CAR (4-1BB, CD3ζ), SEQ ID NO: 216; tested as CAR T cells (protein, expressed in CAR T cells; CAS79236-BBz) MALPVTALLLPLALLLHAARPQVKLVESGGGSVQAGGSLRLSCAVSGYTYSSYCMAWFRQAPGEEREGVASIDAGGRTTYVDSVKGRFTISKDNAKTSLYLQMNSLKPEDTAMYYCAVDVRTRCGGTWDGEAVYFPYWGQGTQVTVSSTTTPAPRPPTPAPTIASQPLSLRPEACRPAAGGAVHTRGLDFACDIYIWAPLAGTCGVLLLSLVITLYCKRGRKKLLYIFKQPFMRPVQTTQEEDGCSCRFPEEEEGGCELRVKFSRSADAPAYKQGQNQLYNELNLGRREEYDVLDKRRGRDPEMGGKPRRKNPQEGLYNELQKDKMAEAYSEIGMKGERRRGKGHDGLYQGLSTATKDTYDALHMQALPPR",better cytotoxicity
–,–,"CAS77916-BBz: camel VHH anti-GPC2 CAR (4-1BB, CD3ζ), SEQ ID NO: 207; tested as CAR T cells (protein, expressed in CAR T cells; CAS77916-BBz) MALPVTALLLPLALLLHAARPQVHLMESGGGSVQAGGSLRLSCATSGYTSSWNCMGWFRQPPGKEREGVATIANRGHSTYYADSVKGRFTISQGNAKNTVYLQMNSLKPEDTAMYYCATDTWACVGISTDFEYWGQGTQVTVSSTTTPAPRPPTPAPTIASQPLSLRPEACRPAAGGAVHTRGLDFACDIYIWAPLAGTCGVLLLSLVITLYCKRGRKKLLYIFKQPFMRPVQTTQEEDGCSCRFPEEEEGGCELRVKFSRSADAPAYKQGQNQLYNELNLGRREEYDVLDKRRGRDPEMGGKPRRKNPQEGLYNELQKDKMAEAYSEIGMKGERRRGKGHDGLYQGLSTATKDTYDALHMQALPPR",better cytotoxicity
320000,6.1e-05,"AS71529VH6-AS70950VH6-hIgG1Fc: tandem AS71529VH6-AS70950VH6 VHH fused to human IgG1Fc fragment (protein, left off: a dimerising Fc or GST, tandem AS71529VH6-AS70950VH6 VHH fused to human IgG1Fc fragment) EVQLVESGGGLVQPGGSLRLSCAVSEYRYSSRYCMGWFRQAPGKGREGVAAIDSNGSADYVDSVKGRFTISKDNSKNTLYLQMNSLRAEDTAMYYCAADHLAYDCYSGATSVFRYWGQGTLVTVSSGGGGSGGGGSGGGGSEVQLVESGGGLVQPGGSLRLSCAISEFTYKNTCVGWFRQAPGKGREGVAAIDSDGNTNYVDSVKGRFTISQDNSKNTVYLQMNSLRAEDTAMYYCAAGAYCGRLLLWIGNYAYWGQGTLVTVSS",–
